This is an account of results in patent publication US20050014220A1.

In this assay the target is bovine thrombin (bovine) (UniProt P00735). As to the kind of experiment: cell-based or functional assay.

Substance “mutated murine thrombomodulin lacking the N-terminal lectin-like domain, expressed on COS cells (from UniProt P15306 17-577) (receptor)” showed a rate of change in absorbance of the chromogenic substrate S2238 at 405 nm (thrombin-dependent activation of protein C on COS cells) of 0.23 units/min.
“wild-type murine thrombomodulin expressed on COS cells (from UniProt P15306 17-577) (receptor)” displayed a rate of change in absorbance of the chromogenic substrate S2238 at 405 nm (thrombin-dependent activation of protein C on COS cells) of 0.21 units/min.
